This is an account of results in patent US11371056B2, “HPPD variants and methods of use” (BASF Agricultural Solutions Seed US LLC, priority 2017, dated 2022).

The data set has as its system Pseudomonas fluorescens HPPD polypeptide (wild-type and mutants). Briefly: Coupled HPPD activity assay: turnover and residual turnover in crude HPPD polypeptide extracts with and without Cmpd. 1. Type of data set: biochemical. Conditions: for Residual turnover: presence of 100 μM Cmpd. 1; for Residual turnover / Turnover: changes in absorbance (OD) at 320 nm in the coupled assay, 30 min; for turnover and residual turnover, comparison in words: 100 μM Cmpd. 1, Table 3; for Turnover: absence of Cmpd. 1; for Residual turnover [%]: 100 μM Cmpd. 1, normalised to turnover without inhibitor. As to the method: For the generation of crude HPPD polypeptide extract in micro titer plates (MTP) for the determination of residual activity in inhibition assays, cells were grown in 40 or 150 μl LB medium containing 1% Glucose (Merck, Darmstadt, Germany) and 100 μg/ml ampicillin in a standard 96 well plate (Thermo Fisher Scientific, Waltham, USA) incubated for about 18 h in a humidity incubator at 37° C. 30 μl of this starter culture were added to 600 μl LB medium containing 100 μg/ml ampicillin and 150 mM Hepes (Merck, Darmstadt, Germany) as inoculum for the expression culture in 96 well plates (2 ml deep wells; HJ Bioanalytik, Erkelenz, Germany). The plates were sealed by an aluminium foil, and cells were incubated for 5 h at 37° C. on a plate shaker at 750 rpm. The expression was induced by addition of IPTG in a final concentration of 1 mM followed by further sealed incubation for about 18 h at 30° C. on a plate shaker at 750 rpm.
Cells were harvested by centrifugation at 4° C., 2500 g for 15 min discarding the supernatant. Cell pellets were stored at −80° C. and lysed in 250 μl 1× BugBuster® (Merck, Darmstadt, Germany) in 140 mM Tris (pH 7.8), with 1:25000 diluted BNase® (Qiagen, Hilden, Germany) by incubation of the resuspended cells for 30 min at 4° C. and 1000 rpm. Lysates were clarified by centrifugation for 15 min at 4° C., 2500 g, and 150 μl supernatant were transferred in standard 96 well plate (Thermo Fisher Scientific, Waltham, USA) for subsequent testing in quadruplets.
The activity of HPPD polypeptides was determined in absence or presence of HPPD inhibitors using the coupled HPPD activity assay (FIG. 1).
For the determination of the residual activity, the apparent kinetic constant (kapp) of the determined substrate conversion was measured as kinetic changes in absorbance (OD) at 320 nm in a coupled assay, in that homogentisate (HGA) formed by HPPD from HPP is directly converted into the well absorbing molecule maleylacetoacetate (MAA) by a second enzyme homogentisate dioxygenase (HGD), applied in excess uniformly in all assays (see FIG. 1). The measurements were performed in 384 micro titer plates (Greiner Bio-One GmbH, Frickenhausen, Germany) by plate readers (Tecan infinite M1000 or M1000PRO, Tecan, Männedorf, Switzerland). The kcat/kM ratio of an enzymatic activity is proportional to the apparent kinetic constant kapp and is proportional to kcat/kM*[E] ([E]=enzyme concentration). […] As both kapp measurements in the presence and absence of inhibitor were performed by use of the identical enzyme sample, crude or purified, and thereby at the same enzyme concentration, the enzyme concentration eliminates from the calculation of residual activity and the ratio of both kapp directly indicates the change of kM due to the inhibition.
The assay solution used for determination of residual activities in raw HPPD polypeptide samples was composed by 200 mM sodium phosphate (Merck, Darmstadt, Germany, pH 7.0), 5 mM MgCl2 (Merck, Darmstadt, Germany), 20 mM ascorbate (Sigma-Aldrich, St. Louis, USA), 1 mM DTT (Sigma-Aldrich, St. Louis, USA), 0.1% Pluronic F-68 (Sigma-Aldrich, St. Louis, USA), 40 μM FeSO4 (Sigma-Aldrich, St. […] Louis, USA) and equilibrated for 20 min on ice.

B1: SEQ ID NO:1: reference wild-type Pseudomonas fluorescens HPPD polypeptide (protein, listed as Pseudomonas fluorescens)
chain: MADLYENPMGLMGFEFIEFASPTPGTLEPIFEIMGFTKVATHRSKNVHLYRQGEINLILNNEPNSIASYFAAEHGPSVCGMAFRVKDSQKAYNRALELGAQPIHIDTGPMELNLPAIKGIGGAPLYLIDRFGEGSSIYDIDFVYLEGVERNPVGAGLKVIDHLTHNVYRGRMVYWANFYEKLFNFREARYFDIKGEYTGLTSKAMSAPDGMIRIPLNEESSKGAGQIEEFLMQFNGEGIQHVAFLTDDLVKTWDALKKIGMRFMTAPPDTYYEMLEGRLPDHGEPVDQLQARGILLDGSSVEGDKRLLLQIFSETLMGPVFFEFIQRKGDDGFGEGNFKALFESIERDQVRRGVLTAD
modifications: 4-hydroxyphenylpyruvate dioxygenase (HPPD; Pseudomonas fluorescens) (1)..(358)
Regarding B1, the Residual turnover was 0.042. Also, the “time-course of inhibition, inhibitor characteristic” value (HPPD inhibitor herbicides, FIG. 2: 200 μM HPP, 0, 4 or 13 μM Cmpd. 1) is “slow and tight binding inhibitor”.

B2: SEQ ID NO:38 (protein)
chain: MADLYENPMGLMGFEFIEFASPTPGTLEPIFEIMGFTKVATHRSKNVHLYRQGEINLILNNEPNSIASYFAAEHGPSVCGMAFRVKDSQKAYNRALELGAQPIHIDTGPMELNLPAIKGIGGAPLYLIDRFGEGSSIYDIDFVYLEGVERNPVGAGLKVIDHLTHNVYRGRMVYWANFYEKLFNFREARYFDIKGEYTGLTSKAMSAPDGMIRIPLNEESSKGAGQIEEFLMQFNGEGIQHVAFLTDDLVKTWDALKKIGMRFMTAPGDEYYEMLEGRLPDHGEPVDQLQARGILLDGSSVEGDKRLLLQIFSETLMGPVFFEFIQRKGDDGFGPHSFKVLFEQMERDQVRRGVLTAD
modifications: mutant HPPD polypeptide
For B2, the “turnover and residual turnover, comparison in words” value (“turnover and residual turnover” below) was “does not show a significant turnover”; the Turnover came to 0.008; the Residual turnover amounted to 0.007.

B3: SEQ ID NO:2 (protein)
chain: MADLYENPMGLMGFEFIEFASPTPGTLEPIFEIMGFTKVATHRSKNVHLYRQGEINLILNNEPNSIASYFAAEHGPSVCGMAFRVKDSQKAYNRALELGAQPIHIDTGPMELNLPAIKGIGGAPLYLIDRFGEGSSIYDIDFVYLEGVERNPVGAGLKVIDHLTHNVYRGRMVYWANFYEKLFNFREARYFDIKGEYTGLTSKAMSAPDGMIRIPLNEESSKGAGQIEEFLMQFNGEGIQHVAFLTDDLVKTWDALKKIGMRFMTAPPDTYYEMLEGRLPDHGEPVDQLQARGILLDGSSVEGDKRLLLQIFSETLMGPVFFEFIQRKGDDGFGPWNFAQLFESIERDQVRRGVLTAD
modifications: mutant HPPD polypeptide
Consider B3, for which the Turnover is given as 0.092 and the Residual turnover was found to be 0.041.

B4: SEQ ID NO:26 (protein)
chain: MADLYENPMGLMGFEFIEFASPTPGTLEPIFEIMGFTKVATHRSKNVHLYRQGEINLILNNEPNSIASYFAAEHGPSVCGMAFRVKDSQKAYNRALELGAQPIHIDTGPMELNLPAIKGIGGAPLYLIDRFGEGSSIYDIDFVYLEGVERNPVGAGLKVIDHLTHNVYRGRMVYWANFYEKLFNFREARYFDIKGEYTGLTSKAMSAPDGMIRIPLNEESSKGAGQIEEFLMQFNGEGIQHVAFLTDDLVKTWDALKKIGMRFLTAPGDEYYEMLEGRLPDHGEPVDQLQARGILLDGSSVEGDKRLLLQIFSEQLMGPVFFEFIQRKGDDGFGPHSFKVLFESIERDQVRRGVLTAD
modifications: mutant HPPD polypeptide
Take B4: the “turnover and residual turnover” value was “significant improvement regarding residual turnover”; the “Residual turnover [%]” value was 60%; the Turnover is on record as 0.235; the Residual turnover was 0.14.

B5: SEQ ID NO:36 (protein)
chain: MADLYENPMGLMGFEFIEFASPTPGTLEPIFEIMGFTKVATHRSKNVHLYRQGEINLILNNEPNSIASYFAAEHGPSVCGMAFRVKDSQKAYNRALELGAQPIHIDTGPMELNLPAIKGIGGAPLYLIDRFGEGSSIYDIDFVYLEGVERNPVGAGLKVIDHLTHNVYRGRMVYWANFYEKLFNFREARYFDIKGEYTGLTSKAMSAPDGMIRIPLNEESSKGAGQIEEFLMQFNGEGIQHVAFLTDDLVKTWDALKKIGMRFMTAPGDEYYEMLEGRLPDHGEPVDQLQARGILLDGSSVEGDKRLLLQIFSEQLMGPVFFEFIQRKGDDGFGPHSFKVLFEQMERDQVRRGVLTAD
modifications: mutant HPPD polypeptide
As to B5, the “turnover and residual turnover” value is “increases significantly the turnover and residual turnover”; the “Residual turnover [%]” value is on record as 66%; the Turnover is on record as 0.244; the Residual turnover is 0.162.

B6: SEQ ID NO:35 (protein)
chain: MADLYENPMGLMGFEFIEFASPTPGTLEPIFEIMGFTKVATHRSKNVHLYRQGEINLILNNEPNSIASYFAAEHGPSVCGMAFRVKDSQKAYNRALELGAQPIHIDTGPMELNLPAIKGIGGAPLYLIDRFGEGSSIYDIDFVYLEGVERNPVGAGLKVIDHLTHNVYRGRMVYWANFYEKLFNFREARYFDIKGEYTGLTSKAMSAPDGMIRIPLNEESSKGAGQIEEFLMQFNGEGIQHVAFLTDDLVKTWDALKKIGMRFMTAPGDEYYEMLEGRLPDHGEPVDQLQARGILLDGSSVEGDKRLLLQIFSEKLMGPVFFEFIQRKGDDGFGPHSFKVLFEQMERDQVRRGVLTAD
modifications: mutant HPPD polypeptide
Regarding B6, the “turnover and residual turnover” value was “increases significantly the turnover and residual turnover”; the “Residual turnover [%]” value is recorded as 59%; the Turnover was 0.27; the Residual turnover is on record as 0.158.

B7: SEQ ID NO:57 (protein)
chain: MADLYENPMGLMGFEFIEFASPTPGTLEPIFEIMGFTKVATHRSKNVHLYRQGEINLILNNEPNSIASYFAAEHGPSVCGMAFRVKDSQKAYNRALELGAQPIHIDTGPMELNLPAIKGIGGAPLYLIDRFGEGSSIYDIDFVYLEGVERNPVGAGLKVIDHLTHNVYRGRMVYWANFYEKLFNFREARYFDIKGEYTGLTSKAMSAPDGMIKIPLNEESSKGAGQIEEFLMQFNGEGIQHVAFLTDDLVKTWDALKKIGMRFMTAPGDEYYEMLEGRLPDHGEPVDQLQARGILLDGSSVEGDKRLLLQIFSEQLMGPVFFEFIQRKGDDGFGPHSFKVLFEQMERDQVRRGVLTAD
modifications: mutant HPPD polypeptide
On to B7, for which the “turnover and residual turnover” value is reported as “increases significantly the absolute turnover”; the “Residual turnover [%]” value is reported as 68%; the Turnover amounted to 0.34; the Residual turnover came out at 0.232.

B8: SEQ ID NO:28 (protein)
chain: MADLYENPMGLMGFEFIEFASPTPGTLEPIFEIMGFTKVATHRSKNVHLYRQGEINLILNNEPNSIASYFAAEHGPSVCGMAFRVKDSQKAYNRALELGAQPIHIDTGPMELNLPAIKGIGGAPLYLIDRFGEGSSIYDIDFVYLEGVERNPVGAGLKVIDHLTHNVYRGRMVYWANFYEKLFNFREARYFDIKGEYTGLTSKAMSAPDGMIRIPLNEESSKGAGQIEEFLMQFNGEGIQHVAFLTDDLVKTWDALKKIGMRFLTAPGDEYYEMLEGRLPDHGEPVDQLQARGILLDGSSVEGDKRLLLQIFSETLMGPVFFEFIQRKGDDGFGPHSFKVLFESIERDQVRRGVLTAD
modifications: mutant HPPD polypeptide
Take B8: the “turnover and residual turnover” value is “decreases the turnover and residual turnover”; the “Residual turnover [%]” value is 50%; the Turnover is 0.203; the Residual turnover was 0.102.
